Experimental data from patent US20230220042A1 (SHANGHAI JIAO TONG UNIVERSITY SCHOOL OF MEDICINE, published 2023).
Positions count from the first letter of the chain named. Numbers in names are those of the source.

T1: Biotin-FcγRIIB (human, UniProt P31994 43-217, limits assumed, biotin label)
T1 construct: Soluble labelled protein used to stain and sort the display cells; also called human FcγRIIB; CD32b
T1 sequence (looked up): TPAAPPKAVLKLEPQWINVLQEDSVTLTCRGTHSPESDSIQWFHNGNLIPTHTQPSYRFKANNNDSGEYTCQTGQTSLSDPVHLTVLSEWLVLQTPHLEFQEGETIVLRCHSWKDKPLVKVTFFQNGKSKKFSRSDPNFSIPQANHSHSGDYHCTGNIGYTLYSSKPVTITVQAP

T2: Biotin-FcγRIIB (human FcγRIIB, Sino Biological) (human, UniProt P31994 43-217, limits assumed, biotin-labeled)
T2 construct: Used at 1 µg/ml with Streptavidin-APC for flow cytometry and sorting; also called CD32b
T2 sequence (looked up): T1 sequence (looked up)

B1: human IgG2 anti-mouse CD40 surface displayed antibody, H268D/S298L/L328W (antibody, name in EU numbering)
light chain (with the P2A rest): DTVLTQSPALAVSPGERVTISCRASDSVSTLMHWYQQKPGQQPKLLIYLASHLESGVPARFSGSGSGTDFTLTIDPVEADDTATYYCQQSWNDPWTFGGGTKLELKRTVAAPSVFIFPPSDEQLKSGTASVVCLLNNFYPREAKVQWKVDNALQSGNSQESVTEQDSKDSTYSLSSTLTLSKADYEKHKVYACEVTHQGLSSPVTKSFNRGECGSGATNFSLLKQAGDVEENPG
heavy chain: EVQLVESDGGLVQPGRSLKLPCAASGFTFSDYYMAWVRQAPTKGLEWVASISYDGSSTYYRDSVKGRFTISRDNAKSTLYLQMDSLRSEDTATYYCGRHSSYFDYWGQGVMVTVSSASTKGPSVFPLAPCSRSTSESTAALGCLVKDYFPEPVTVSWNSGALTSGVHTFPAVLQSSGLYSLSSVVTVPSSNFGTQTYTCNVDHKPSNTKVDKTVERKCCVECPPCPAPPVAGPSVFLFPPKPKDTLMISRTPEVTCVVVDVSDEDPEVQFNWYVDGVEVHNAKTKPREEQFNLTFRVVSVLTVVHQDWLNGKEYKCKVSNKGWPAPIEKTISKTKGQPREPQVYTLPPSREEMTKNQVSLTCLVKGFYPSDIAVEWESNGQPENNYKTTPPMLDSDGSFFLYSKLTVDKSRWQQGNVFSCSVMHEALHNHYTQKSLSLSPGKLEPPPSTVSNMATVAVLVVLGAAIVTGAVVAFVMKMRRRNTGGKGGDYALAPGSQTSDLSLPDCKVMVHDPHSLA
notes: As m1 with the Fc mutations
B2: human IgG2 anti-mouse CD40 surface displayed antibody, V266L/S298L/L328W (antibody, name in EU numbering)
light chain (with the P2A rest): B1 light chain (with the P2A rest)
heavy chain: B1 heavy chain with V261L, D263H
notes: As m1 with the Fc mutations
B3: human IgG2 anti-mouse CD40 surface displayed antibody, S239V/V266L/S298L/L328W (antibody, name in EU numbering)
light chain (with the P2A rest): B1 light chain (with the P2A rest)
heavy chain: B1 heavy chain with S234V, V261L, D263H
notes: As m1 with the Fc mutations
B4: human IgG2 anti-mouse CD40 surface displayed antibody, S267V/S298L/L328W (antibody, name in EU numbering)
light chain (with the P2A rest): B1 light chain (with the P2A rest)
heavy chain: B1 heavy chain with S262V, D263H
notes: As m1 with the Fc mutations
B5: human IgG2 anti-mouse CD40 surface displayed antibody, V266L/L328W (antibody, name in EU numbering)
light chain (with the P2A rest): B1 light chain (with the P2A rest)
heavy chain: B1 heavy chain with V261L, D263H, L293S
notes: As m1 with the Fc mutations
B6: human IgG2 anti-mouse CD40 surface displayed antibody, S267V/S298G/L328W (antibody, name in EU numbering)
light chain (with the P2A rest): B1 light chain (with the P2A rest)
heavy chain: B1 heavy chain with S262V, D263H, L293G
notes: As m1 with the Fc mutations
B7: human IgG2 anti-mouse CD40 surface displayed antibody, S267E/P271C (antibody, name in EU numbering)
light chain (with the P2A rest): B1 light chain (with the P2A rest)
heavy chain: B1 heavy chain with S262E, D263H, P266C, L293S, W323L
notes: m1 with these Fc mutations (Eu numbering); copies: 2 + 2
B8: human IgG2 anti-mouse CD40 surface displayed antibody, V266A/P271G (antibody, name in EU numbering)
light chain (with the P2A rest): B1 light chain (with the P2A rest)
heavy chain: B1 heavy chain with V261A, D263H, P266G, L293S, W323L
notes: as for B7
B9: human IgG2 anti-mouse CD40 surface displayed antibody, S267E/P271W (antibody, name in EU numbering)
light chain (with the P2A rest): B1 light chain (with the P2A rest)
heavy chain: B1 heavy chain with S262E, D263H, P266W, L293S, W323L
notes: as for B7
B10: human IgG2 anti-mouse CD40 surface displayed antibody, S267E/P271V (antibody, name in EU numbering)
light chain (with the P2A rest): B1 light chain (with the P2A rest)
heavy chain: B1 heavy chain with S262E, D263H, P266V, L293S, W323L
notes: as for B7
B11: human IgG2 anti-mouse CD40 surface displayed antibody, S267G (antibody, name in EU numbering)
light chain (with the P2A rest): B1 light chain (with the P2A rest)
heavy chain: B1 heavy chain with S262G, D263H, L293S, W323L
notes: m1 with this Fc mutation (Eu numbering); copies: 2 + 2
B12: human IgG2 anti-mouse CD40 surface displayed antibody, S267M (antibody, name in EU numbering)
light chain (with the P2A rest): B1 light chain (with the P2A rest)
heavy chain: B1 heavy chain with S262M, D263H, L293S, W323L
notes: as for B11
B13: human IgG2 anti-mouse CD40 surface displayed antibody, S267E/P271Y (antibody, name in EU numbering)
light chain (with the P2A rest): B1 light chain (with the P2A rest)
heavy chain: B1 heavy chain with S262E, D263H, P266Y, L293S, W323L
notes: as for B7
B14: human IgG2 anti-mouse CD40 surface displayed antibody, V266A/P271C (antibody, name in EU numbering)
light chain (with the P2A rest): B1 light chain (with the P2A rest)
heavy chain: B1 heavy chain with V261A, D263H, P266C, L293S, W323L
notes: as for B7
B15: human IgG2 anti-mouse CD40 surface displayed antibody, V266G/P271C (antibody, name in EU numbering)
light chain (with the P2A rest): B1 light chain (with the P2A rest)
heavy chain: B1 heavy chain with V261G, D263H, P266C, L293S, W323L
notes: as for B7
B16: human IgG2 anti-mouse CD40 surface displayed antibody, S267M/P271C (antibody, name in EU numbering)
light chain (with the P2A rest): B1 light chain (with the P2A rest)
heavy chain: B1 heavy chain with S262M, D263H, P266C, L293S, W323L
notes: as for B7
B17: human IgG2 anti-mouse CD40 surface displayed antibody, S267M/P271G (antibody, name in EU numbering)
light chain (with the P2A rest): B1 light chain (with the P2A rest)
heavy chain: B1 heavy chain with S262M, D263H, P266G, L293S, W323L
notes: as for B7
B18: human IgG2 anti-mouse CD40 surface displayed antibody, S267Q (antibody, name in EU numbering)
light chain (with the P2A rest): B1 light chain (with the P2A rest)
heavy chain: B1 heavy chain with S262Q, D263H, L293S, W323L
notes: as for B11

The binders below were run against T1, Biotin-FcγRIIB (assay: NGS of 3T3 display library Cmix flow-sorted for FcγRIIB binding).

enrichment factor, percentage after 2nd sorting/percentage after 1st sorting [ratio]	enrichment factor, percentage after 3rd sorting/percentage after 2nd sorting [ratio]	percentage after 1st sorting [%]	percentage after 2nd sorting [%]	percentage after 3rd sorting [%]	enrichment factor, percentage after 1st sorting/percentage before sorting [ratio]	enrichment factor, percentage after 3rd sorting/percentage before sorting [ratio]	increased factor, mutant enrichment factor/wild-type enrichment factor [ratio]	percentage before sorting [%]	Binder
44	5.95	0	0.21	1.25					B1
64.8	6.03	0.06	4.14	25	21.1	8230	21900	0	B2
39.1	5.02	0	0.07	0.33					B3
73.6	7.21	0	0.13	0.9	3.92	2080	5550	0	B4
53.3	5.53	0	0.22	1.2	4.71	1390	3700	0	B5
47.4	5.76	0	0.03	0.19					B6

What follows are binders tested against T2, Biotin-FcγRIIB (human FcγRIIB, Sino …) (assay: NGS after FACS sort of 3T3-displayed Library2 for biotin-FcγRIIB binding).

Enrichment factor (percentage after sorting/percentage before sorting)	Increased factor (enrichment factor/wild-type enrichment factor)	Binder
1000	1740	B7
8.63	15	B8
24	41.8	B9
22.1	38.4	B10
1.79	3.5	B11
1.48	2.57	B12
19.2	33.4	B13
42.2	73.5	B14
3.83	6.68	B15
32.1	56	B16
4.31	7.52	B17
8.64	15.1	B18
